# Patent US20180346592A1
# Residue numbers refer to the chain shown, from its start.
# B1: clone GX247 (scFv, V domains shown)
# VH: QVQLVQSGAEVKKPGASVKVSCKASGYTFTSYYMHWVRQAPGQGLEWMGIINPSGGSTSYAQKFQGRVTMTRDTSTSTVYMELSSLRSEDTAVYYCARTRKGSGYSYGYGMDVWGQGTTVTVSS
# VL: SYELTQPPSVSVSPGQTASITCSGDKLGNKYVSWYQQKPGQSPVLVIYQDNKRPSGIPERFSGSNSGNTATLTISGTQAMDEAGYYCQTWDSSVVFGGGTKLTVLG
# B2: clone GN328 (scFv, V domains shown)
# VH: EVQLVESGGGLVQPGGSLRVSCAASGFTFSTAWMDWVRQAPGKGLEWVANINPDGSEKHYVDSVKGRFTVSRDNAKNSVYLHMNNLRAEDTAVYYCSKALDYWGQGTTVTVSS
# VL: DIQMTQSPSTLSASVGDRVTITCRASQNINTWLAWYQQKPGKAPEVLIYEASSLESGVPPRFSGSGSGTEFTLTISSLQPDDSATYYCQQYNTYSPTFGQGTKLEIKR
# B3: clone GN414 (scFv, V domains shown)
# VH: QVQLVQSGAEVKKPGASVKVSCKASGYTFSTYGITWVRQAPGQGLEWMGRITPNNGVTDYAQKFQGRVTMTRDTSISTAYMELSSLRSDDSAVYYCAREIGSSSWKLLDPWGQGTMVTVSS
# VL: QAVLTQPSSVSVSPGQTASITCTGNSNNVGYEGAAWVQQYQGHPPKLLSDRNHNRPSGISERFSASRSGNTASLTITGLQSEDEADYYCSAWDSSLSEWVSGGGTKLTVLG
# B4: clone GX263 (scFv, V domains shown)
# VH: EVQLVESGGGLVKPGGSLRLSCAASGFTFSSYSMNWVRQAPGKGLEWVSSISSSSSYIYYADSVKGRFTISRDNAKNSLYLQMNSLRAEDTAVYYCARVTPYYYYGMDVWGQGTTVTVSS
# VL: QSVVTQPPSVSAAPGQKVTISCSGSSSNIGNNYVSWYQQLPGTAPKLLIYDSNKRPPGIPDRFSGSKSGTSATLGITGLQTGDEADYYCGAWDSSLSAVVFGGGTKLTVLG
# B5: clone GX184 (scFv, V domains shown)
# VH: QLQLQESGPGLVKPSETLSLTCAVSGGSISSSNNYWGWIRQPPGKGLEWIGSIFYSGSTYYNPSLKSRVTISVDTSKNQFSLKLSSVTAADTAVYYCARLPTGTPGFYFDYWGQGTLVTVSS
# VL: SYELTQPPSVSKGLRQTATLTCTGNSNNVGNQGAAWLQQHQGHPPKLLSYRNNNRPSGISERFSASRSGNTASLTITGLQPEDEADYYCSAWDSSLSAWVFGGGTKLTVLG
# B6: clone GS002 (scFv, V domains shown)
# VH: EVQLLESGGGLVQPGGSLRLSCAASGFTFSGYSMSWVRQAPGKGLEWVSSISPGGSSTYYADSVKGRFTISRDNSKNTLYLQMSSLRAEDTAVYYCARYRVWHMTTGDYYSNAMDVWGQGTLVTVSS
# VL: QSVLTQPPSASGTPGQRVTISCTGSSSNIGSNAVSWYQQLPGTAPKLLIYDDNKRPSGVLDRFSGSKSGTSASLAISGLRSEDEADYYCGTWDDSLSGYVFGGGTKLTVLG
# B7: clone GS010 (scFv, V domains shown)
# VH: EVQLLESGGGLVQPGGSLRLSCAASGFTFSNYSMSWVRQAPGKGLEWVSVISPSSGSIYYADSVKGRFTISRDNSKNTLYLQMNSLRAEDTAVYYCARYRVRQLKHTRSYADAMDVWGQGTLVTVSS
# VL: QSVLTQPPSASGAPGQRVTISCSGSSSNIGSNAVSWYQQLPGTAPKLLIYANSHRPSGVPDRFSGSKSGTSASLAISGLRSEDETDYYCASWDSSLSGYVFGGGTKLTVLG
# B8: clone GS004 (scFv, V domains shown)
# VH: EVQLLESGGGLVQPGGSLRLSCAVSGFTFSNYSMSWVRQAPGKGLEWVSAISPGSSNKYYADSVKGRFTISRDNSKNTLYLQMNSLRAEDTAVYYCARYRVWAHSASSSYSNAMDVWGQGTLVTVSS
# VL: B6 VL with T23S, S31N, A33D, D51S, N53S, K54Q, L60P, T91S, S97N
# B9: clone GS015 (scFv, V domains shown)
# VH: EVQLLESGGGLAQPGGSLRLSCAASGFTFSDYSMSWVRQAPGKGLEWVSAISPDGGSKYYADSVKGRFTISRDNSKNTLYLQMNSLRAEDTAVYYCARFRVIKLRAGWYSANGMDVWGQGTLVTVSS
# VL: B6 VL with T23S, S31N, A33D, D51Y, D52N, N53S, L60P, T91A, S97N
# B10: clone GS014 (scFv, V domains shown)
# VH: EVQLLESGGGLVQPGGSLRLSCAASGFTFSNYAMSWVRQAPGKGLEWVSVISPNSGSNTYYADSVKGRFTISRDNSKNTLYLQMNSLRAEDTAVYYCARPRILRRRVDHSYSYAMDVWGQGTLVTVSS
# VL: B6 VL with S31N, A33Y, D51S, D52N, N53S, K54H, L60P, D94Y, F101L
# B11: clone GS006 (scFv, V domains shown)
# VH: EVQLLESGGGLVQPGGSLRLSCAASGFTFSGYSMSWVRQAPGKGLEWVSAISPGGGSKYYADSVRGRFTVSRDNSKNTLYLQMNSLRAEDTAVYYCARYRVQKSAKNVYSSNGMDVWGQGTLVTVSS
# VL: QSVLTQPPPASGTPGQRVTISCSGSSSNIGNNAVNWYQQLPGTAPKLLIYYDSNRPSGVPDRFSGSKSGTSASLAISGLRSEDEADYYCGAWDSSLSAYVFGGGTKLTVLG
# Target: GPC3 on the surface of hepatic cancer cell lines (SK-Hep1-GPC3 transfectant, HepG2, Huh7, Hep3B, SNU398) (human) (UniProt P51654)
# Assay: FACS, SK-Hep1-GPC3 #9 cells, 1 ug antibody; lower left panel
row,Binder,"Mean, FL2-H"
1,B1,6.07
2,B2,4.17
3,B3,3.75
4,B4,3.71
5,B5,3.99

# Target: GPC3 on the surface of hepatic cancer cell lines (SK-Hep1-GPC3 transfectant, HepG2, Huh7, Hep3B, SNU398) (human) (UniProt P51654)
# Assay: FACS, HepG2 cells, 1 ug antibody; upper right panel (Synthetic library)
row,Binder,"Mean, FL2-H"
1,B6,4.71
2,B7,4.72
3,B8,4.38
4,B9,3.64
5,B10,5.66
6,B11,3.41

# Target: GPC3 on the surface of hepatic cancer cell lines (SK-Hep1-GPC3 transfectant, HepG2, Huh7, Hep3B, SNU398) (human) (UniProt P51654)
# Assay: FACS, SK-Hep1-GPC3 #9 cells, 1 ug antibody; upper right panel
row,Binder,"Mean, FL2-H"
1,B6,4.17
2,B7,4.53
3,B8,4.11
4,B9,5.34
5,B10,4.39
6,B11,3.65

# Target: GPC3 on the surface of hepatic cancer cell lines (SK-Hep1-GPC3 transfectant, HepG2, Huh7, Hep3B, SNU398) (human) (UniProt P51654)
# Assay: FACS, HepG2 cells, 1 ug antibody; lower left panel (Human naive library)
row,Binder,"Mean, FL2-H"
1,B1,5.53
2,B2,4.24
3,B3,6.9
4,B4,6.06
5,B5,5.39
